In this assay the target is Erk2 (UniProt P63086). In words: ITC. (In general: In ITC the heat of successive injections is recorded.)

In general, Kd refers to a measure of binding affinity in units of concentration. A lower Kd goes with higher affinity. A word on the stoichiometry N: it is a count of units in the complex or per binding partner.

Regarding “HePTP 15-339 (includes the KIM) (domain or fragment)”, the Kd worked out at 549 nM, the dH was -10.8 kcal/mol and the stoichiometry N was 0.95.

(Values after paper PMC2908255.)
